According to US20260167699A1 (Chugai, published 2026):

T1: FcγRIIa(R) (human, UniProt P12318 34-217)
T1 construct: extracellular domain; also called FcγRIIa R type; 2aR
T1 sequence: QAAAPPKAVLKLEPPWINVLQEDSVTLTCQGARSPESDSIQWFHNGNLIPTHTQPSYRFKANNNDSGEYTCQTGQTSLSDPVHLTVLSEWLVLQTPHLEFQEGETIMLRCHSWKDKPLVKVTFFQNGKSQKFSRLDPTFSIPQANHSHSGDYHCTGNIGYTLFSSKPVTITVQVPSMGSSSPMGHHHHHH

T2: FcγRIIa(H) (human, UniProt P12318 34-217)
T2 construct: extracellular domain; also called FcγRIIa H type; 2aH
T2 sequence: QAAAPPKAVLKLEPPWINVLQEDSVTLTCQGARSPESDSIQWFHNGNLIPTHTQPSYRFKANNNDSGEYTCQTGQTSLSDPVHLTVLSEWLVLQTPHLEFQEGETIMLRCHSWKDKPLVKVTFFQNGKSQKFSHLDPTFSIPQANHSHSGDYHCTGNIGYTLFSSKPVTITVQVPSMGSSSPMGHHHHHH

T3: FcγRIIb (human, UniProt P31994 43-217)
T3 construct: extracellular domain; also called 2b
T3 sequence: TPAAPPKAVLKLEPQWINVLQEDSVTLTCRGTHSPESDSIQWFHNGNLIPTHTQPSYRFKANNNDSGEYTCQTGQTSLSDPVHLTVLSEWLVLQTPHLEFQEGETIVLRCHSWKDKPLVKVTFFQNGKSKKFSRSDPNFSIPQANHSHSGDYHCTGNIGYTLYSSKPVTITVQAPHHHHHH


Columns and labels:
Assay in all cases: SPR (Biacore), binding relative to GpH7-A5/GpH7-B3/GpL16-k0 x100;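 also: surface plasmon resonance at 25 °C, antibody captured on a sensor chip and soluble FcγR flowed over it in HBS-EP+ running buffer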
FcγRIa = biological target: T4, FcγRIa (human, UniProt P12314 16-292)
T4 construct: extracellular domain; also called 1a

FcγRIIa(R) = biological target: T1, FcγRIIa(R)
FcγRIIa(H) = biological target: T2, FcγRIIa(H)
FcγRIIb = biological target: T3, FcγRIIb

T4 sequence (P12314 other isoform, or with tags, fused parts or gaps): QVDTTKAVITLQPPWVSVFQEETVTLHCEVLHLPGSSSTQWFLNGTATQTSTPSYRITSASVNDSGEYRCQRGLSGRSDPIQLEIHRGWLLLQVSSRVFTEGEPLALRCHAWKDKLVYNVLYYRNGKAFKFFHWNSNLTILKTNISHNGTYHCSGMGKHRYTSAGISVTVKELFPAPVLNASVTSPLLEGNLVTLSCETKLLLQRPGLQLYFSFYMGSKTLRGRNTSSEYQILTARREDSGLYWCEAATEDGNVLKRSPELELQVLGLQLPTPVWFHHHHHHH

He/Con 1a (FcγRIa) | He/Con 2aR (FcγRIIa(R)) | He/Con 2aH (FcγRIIa(H)) | He/Con 2b (FcγRIIb) | Binder
100% | 79% | 76.4% | 76.2% | GpH7-A5/GpH7-B3 variant P271_16H/GpL16-k0 (antibody, human IgG1, kappa, heterodimerized IgG1, one H chain mutated; also called He Ab) heavy 1: not shown heavy 2: not shown light: DIVMTQSPLSLPVTPGEPASISCQASESLVHSNRNTYLHWYLQKPGQSPQLLIYKVSNRFSGVPDRFSGSGSGTDFTLKISRVEAEDVGVYYCSQNTHVPPTFGQGTKVEIERTVAAPSVFIFPPSDEQLKSGTASVVCLLNNFYPREAKVQWKVDNALQSGNSQESVTEQDSKDSTYSLSSTLTLSKADYEKHKVYACEVTHQGLSSPVTKSFNRGEC
102% | 188% | 103% | 398% | GpH7-A5/GpH7-B3 variant S267_10E/GpL16-k0 (antibody, human IgG1, kappa, heterodimerized IgG1, one H chain mutated; also called He Ab) heavy 1: not shown heavy 2: not shown light: DIVMTQSPLSLPVTPGEPASISCQASESLVHSNRNTYLHWYLQKPGQSPQLLIYKVSNRFSGVPDRFSGSGSGTDFTLKISRVEAEDVGVYYCSQNTHVPPTFGQGTKVEIERTVAAPSVFIFPPSDEQLKSGTASVVCLLNNFYPREAKVQWKVDNALQSGNSQESVTEQDSKDSTYSLSSTLTLSKADYEKHKVYACEVTHQGLSSPVTKSFNRGEC
104% | 97.4% | 95.9% | 98.6% | GpH7-A5/GpH7-B3 variant S239_14T/GpL16-k0 (antibody, human IgG1, kappa, heterodimerized IgG1, one H chain mutated; also called He Ab) heavy 1: not shown heavy 2: not shown light: DIVMTQSPLSLPVTPGEPASISCQASESLVHSNRNTYLHWYLQKPGQSPQLLIYKVSNRFSGVPDRFSGSGSGTDFTLKISRVEAEDVGVYYCSQNTHVPPTFGQGTKVEIERTVAAPSVFIFPPSDEQLKSGTASVVCLLNNFYPREAKVQWKVDNALQSGNSQESVTEQDSKDSTYSLSSTLTLSKADYEKHKVYACEVTHQGLSSPVTKSFNRGEC
104% | 104% | 91.1% | 121% | GpH7-A5/GpH7-B3 variant S239_18N/GpL16-k0 (antibody, human IgG1, kappa, heterodimerized IgG1, one H chain mutated; also called He Ab) heavy 1: not shown heavy 2: not shown light: DIVMTQSPLSLPVTPGEPASISCQASESLVHSNRNTYLHWYLQKPGQSPQLLIYKVSNRFSGVPDRFSGSGSGTDFTLKISRVEAEDVGVYYCSQNTHVPPTFGQGTKVEIERTVAAPSVFIFPPSDEQLKSGTASVVCLLNNFYPREAKVQWKVDNALQSGNSQESVTEQDSKDSTYSLSSTLTLSKADYEKHKVYACEVTHQGLSSPVTKSFNRGEC
104% | 129% | 111% | 209% | GpH7-A5/GpH7-B3 variant S239_09D/GpL16-k0 (antibody, human IgG1, kappa, heterodimerized IgG1, one H chain mutated; also called He Ab) heavy 1: not shown heavy 2: not shown light: DIVMTQSPLSLPVTPGEPASISCQASESLVHSNRNTYLHWYLQKPGQSPQLLIYKVSNRFSGVPDRFSGSGSGTDFTLKISRVEAEDVGVYYCSQNTHVPPTFGQGTKVEIERTVAAPSVFIFPPSDEQLKSGTASVVCLLNNFYPREAKVQWKVDNALQSGNSQESVTEQDSKDSTYSLSSTLTLSKADYEKHKVYACEVTHQGLSSPVTKSFNRGEC
99.9% | 121% | 72.1% | 110% | GpH7-A5/GpH7-B3 variant S267_01G/GpL16-k0 (antibody, human IgG1, kappa, heterodimerized IgG1, one H chain mutated; also called He Ab) heavy 1: not shown heavy 2: not shown light: DIVMTQSPLSLPVTPGEPASISCQASESLVHSNRNTYLHWYLQKPGQSPQLLIYKVSNRFSGVPDRFSGSGSGTDFTLKISRVEAEDVGVYYCSQNTHVPPTFGQGTKVEIERTVAAPSVFIFPPSDEQLKSGTASVVCLLNNFYPREAKVQWKVDNALQSGNSQESVTEQDSKDSTYSLSSTLTLSKADYEKHKVYACEVTHQGLSSPVTKSFNRGEC
104% | 79.8% | 80% | 87.3% | GpH7-A5/GpH7-B3 variant S239_19Q/GpL16-k0 (antibody, human IgG1, kappa, heterodimerized IgG1, one H chain mutated; also called He Ab) heavy 1: not shown heavy 2: not shown light: DIVMTQSPLSLPVTPGEPASISCQASESLVHSNRNTYLHWYLQKPGQSPQLLIYKVSNRFSGVPDRFSGSGSGTDFTLKISRVEAEDVGVYYCSQNTHVPPTFGQGTKVEIERTVAAPSVFIFPPSDEQLKSGTASVVCLLNNFYPREAKVQWKVDNALQSGNSQESVTEQDSKDSTYSLSSTLTLSKADYEKHKVYACEVTHQGLSSPVTKSFNRGEC
102% | 94.7% | 95.4% | 102% | GpH7-A5/GpH7-B3 variant S239_06M/GpL16-k0 (antibody, human IgG1, kappa, heterodimerized IgG1, one H chain mutated; also called He Ab) heavy 1: not shown heavy 2: not shown light: DIVMTQSPLSLPVTPGEPASISCQASESLVHSNRNTYLHWYLQKPGQSPQLLIYKVSNRFSGVPDRFSGSGSGTDFTLKISRVEAEDVGVYYCSQNTHVPPTFGQGTKVEIERTVAAPSVFIFPPSDEQLKSGTASVVCLLNNFYPREAKVQWKVDNALQSGNSQESVTEQDSKDSTYSLSSTLTLSKADYEKHKVYACEVTHQGLSSPVTKSFNRGEC
104% | 120% | 93.8% | 146% | GpH7-A5/GpH7-B3 variant S239_01G/GpL16-k0 (antibody, human IgG1, kappa, heterodimerized IgG1, one H chain mutated; also called He Ab) heavy 1: not shown heavy 2: not shown light: DIVMTQSPLSLPVTPGEPASISCQASESLVHSNRNTYLHWYLQKPGQSPQLLIYKVSNRFSGVPDRFSGSGSGTDFTLKISRVEAEDVGVYYCSQNTHVPPTFGQGTKVEIERTVAAPSVFIFPPSDEQLKSGTASVVCLLNNFYPREAKVQWKVDNALQSGNSQESVTEQDSKDSTYSLSSTLTLSKADYEKHKVYACEVTHQGLSSPVTKSFNRGEC
101% | 95.9% | 88.5% | 108% | GpH7-A5/GpH7-B3 variant S239_07I/GpL16-k0 (antibody, human IgG1, kappa, heterodimerized IgG1, one H chain mutated; also called He Ab) heavy 1: not shown heavy 2: not shown light: DIVMTQSPLSLPVTPGEPASISCQASESLVHSNRNTYLHWYLQKPGQSPQLLIYKVSNRFSGVPDRFSGSGSGTDFTLKISRVEAEDVGVYYCSQNTHVPPTFGQGTKVEIERTVAAPSVFIFPPSDEQLKSGTASVVCLLNNFYPREAKVQWKVDNALQSGNSQESVTEQDSKDSTYSLSSTLTLSKADYEKHKVYACEVTHQGLSSPVTKSFNRGEC
106% | 186% | 107% | 326% | GpH7-A5/GpH7-B3 variant S267_09D/GpL16-k0 (antibody, human IgG1, kappa, heterodimerized IgG1, one H chain mutated; also called He Ab) heavy 1: not shown heavy 2: not shown light: DIVMTQSPLSLPVTPGEPASISCQASESLVHSNRNTYLHWYLQKPGQSPQLLIYKVSNRFSGVPDRFSGSGSGTDFTLKISRVEAEDVGVYYCSQNTHVPPTFGQGTKVEIERTVAAPSVFIFPPSDEQLKSGTASVVCLLNNFYPREAKVQWKVDNALQSGNSQESVTEQDSKDSTYSLSSTLTLSKADYEKHKVYACEVTHQGLSSPVTKSFNRGEC
108% | 127% | 108% | 183% | GpH7-A5/GpH7-B3 variant S239_10E/GpL16-k0 (antibody, human IgG1, kappa, heterodimerized IgG1, one H chain mutated; also called He Ab) heavy 1: not shown heavy 2: not shown light: DIVMTQSPLSLPVTPGEPASISCQASESLVHSNRNTYLHWYLQKPGQSPQLLIYKVSNRFSGVPDRFSGSGSGTDFTLKISRVEAEDVGVYYCSQNTHVPPTFGQGTKVEIERTVAAPSVFIFPPSDEQLKSGTASVVCLLNNFYPREAKVQWKVDNALQSGNSQESVTEQDSKDSTYSLSSTLTLSKADYEKHKVYACEVTHQGLSSPVTKSFNRGEC
98.9% | 94.1% | 88% | 110% | GpH7-A5/GpH7-B3 variant S239_03V/GpL16-k0 (antibody, human IgG1, kappa, heterodimerized IgG1, one H chain mutated; also called He Ab) heavy 1: not shown heavy 2: not shown light: DIVMTQSPLSLPVTPGEPASISCQASESLVHSNRNTYLHWYLQKPGQSPQLLIYKVSNRFSGVPDRFSGSGSGTDFTLKISRVEAEDVGVYYCSQNTHVPPTFGQGTKVEIERTVAAPSVFIFPPSDEQLKSGTASVVCLLNNFYPREAKVQWKVDNALQSGNSQESVTEQDSKDSTYSLSSTLTLSKADYEKHKVYACEVTHQGLSSPVTKSFNRGEC
103% | 114% | 101% | 142% | GpH7-A5/GpH7-B3 variant S239_08L/GpL16-k0 (antibody, human IgG1, kappa, heterodimerized IgG1, one H chain mutated; also called He Ab) heavy 1: not shown heavy 2: not shown light: DIVMTQSPLSLPVTPGEPASISCQASESLVHSNRNTYLHWYLQKPGQSPQLLIYKVSNRFSGVPDRFSGSGSGTDFTLKISRVEAEDVGVYYCSQNTHVPPTFGQGTKVEIERTVAAPSVFIFPPSDEQLKSGTASVVCLLNNFYPREAKVQWKVDNALQSGNSQESVTEQDSKDSTYSLSSTLTLSKADYEKHKVYACEVTHQGLSSPVTKSFNRGEC
105% | 167% | 121% | 256% | GpH7-A5/GpH7-B3 variant S267_02A/GpL16-k0 (antibody, human IgG1, kappa, heterodimerized IgG1, one H chain mutated; also called He Ab) heavy 1: not shown heavy 2: not shown light: DIVMTQSPLSLPVTPGEPASISCQASESLVHSNRNTYLHWYLQKPGQSPQLLIYKVSNRFSGVPDRFSGSGSGTDFTLKISRVEAEDVGVYYCSQNTHVPPTFGQGTKVEIERTVAAPSVFIFPPSDEQLKSGTASVVCLLNNFYPREAKVQWKVDNALQSGNSQESVTEQDSKDSTYSLSSTLTLSKADYEKHKVYACEVTHQGLSSPVTKSFNRGEC
103% | 89.8% | 89.9% | 91.6% | GpH7-A5/GpH7-B3 variant S239_02A/GpL16-k0 (antibody, human IgG1, kappa, heterodimerized IgG1, one H chain mutated; also called He Ab) heavy 1: not shown heavy 2: not shown light: DIVMTQSPLSLPVTPGEPASISCQASESLVHSNRNTYLHWYLQKPGQSPQLLIYKVSNRFSGVPDRFSGSGSGTDFTLKISRVEAEDVGVYYCSQNTHVPPTFGQGTKVEIERTVAAPSVFIFPPSDEQLKSGTASVVCLLNNFYPREAKVQWKVDNALQSGNSQESVTEQDSKDSTYSLSSTLTLSKADYEKHKVYACEVTHQGLSSPVTKSFNRGEC
